Measurements taken from patent US5885797.

B1: I-mfa (protein)
chain: MSQVSGQCPSRCDAPHGVPSAALDPAQTMSLLPGLEVARSTHPVEASSEEGFPEEAAPSMPHDSGLRAQQALNSIDLDVPTEAVTCQPQGNPQGCTPLLPNGSSHDHLSEPGSAGHAGNGALGGSKAHRKLQTHPSLGSQAGRKSRGSARSASQVPLQAQEDCCVHCILSCLFCEFLTLCNILLDCATCGSCSSEDSCLCCCCCGSGECADCDLPCDLDCGIVDACCESADCLEICMECCGLCFSS
B2: I-mfb (protein)
chain: MSQVSGQCPSRCDAPHGVPSAALDPAQTMSLLPGLEVARSTHPVEASSEEGFPEEAAPSMPHDSGLRAQQALNSIDLDVPTEAVTCQPQGNPQGCTPLLPNGSSHDHLSEPGSAGHAGNGALGGSKAHRKLQTHPSLGSQAGRKSRGSARSASQVPLQAQEGKAPAVRIHRQTASPTCCLRNAQLSGTALRSLRLESQGHRELNNKTLSQSNNKKPGVAAHAAIIPALTRPKQNCHDPSLLPGTHGVGKEF
B3: I-mfc (protein)
chain: MSQVSGQCPSRCDAPHGVPSAALDPAQTMSLLPGLEVARSTHPVEASSEEGFPEEAAPSMPHDSGLRAQQALNSIDLDVPTEAVTCQPQGNPQGCTPLLPNGSSHDHLSEPGSAGHAGNGALGGSKAHRKLQTHPPQPPNRSAFRRVAWSPPRVTRNTASRAW

Target: E12

| Binder | Relative CAT Activity (%), p4R-TK-CAT, NIH3T3 [%] |
| --- | --- |
| B1 | 76.3 |
| B2 | 98.7 |
| B3 | 93.8 |
